Key:
TALE13 N+91 C+52 = TALE13 N+91 C+52 (Xanthomonas axonopodis); assay: DNA-binding ELISA; background level
Description: (§1) When clones #3, 4 and 5 were subjected to the SELEX procedure, no consensus sequences were detected. Thus it appears that the TALE binding domains require N- and C-terminal cap sequences comprised in from clone #2 to yield a consensus sequence in this assay. Additional truncations were made and tested for activity using a DNA binding ELISA assay essentially as described in Bartsevich et al., Stem Cells. 2003; 21:632-7. The truncations are presented below in Table 7, which also includes the ELISA results. The starting N-terminus in these truncations is at amino acid 152, identical to the N-terminus in the #1, #2, and #3 truncations discussed above. In this fine-scale truncation series, the end points are as follows.

TALE13 N+121 C+52 = TALE13 N+121 C+52 (Xanthomonas axonopodis); assay: DNA-binding ELISA; background level
Description: as §1

TALE13 N+91 C+115 = TALE13 N+91 C+115 (Xanthomonas axonopodis); assay: DNA-binding ELISA; background level
Description: as §1

TALE13 N+100 C+115 = TALE13 N+100 C+115 (Xanthomonas axonopodis); assay: DNA-binding ELISA; background level
Description: as §1

TALE13 N+111 C+52 = TALE13 N+111 C+52 (Xanthomonas axonopodis); assay: DNA-binding ELISA; background level
Description: as §1

TALE13 N+100 C+52 = TALE13 N+100 C+52 (Xanthomonas axonopodis); assay: DNA-binding ELISA; background level
Description: as §1

TALE13 +63 FokI = molecular target: T1, TALE13 +63 FokI (Xanthomonas axonopodis (engineered)); assay: cleavage_in_vitro; two inverted sites, 16 bp gap; NEB Buffer 2, 37 C; conditions: tags: FLAG, NLS, chain copies: 2
T1 chain: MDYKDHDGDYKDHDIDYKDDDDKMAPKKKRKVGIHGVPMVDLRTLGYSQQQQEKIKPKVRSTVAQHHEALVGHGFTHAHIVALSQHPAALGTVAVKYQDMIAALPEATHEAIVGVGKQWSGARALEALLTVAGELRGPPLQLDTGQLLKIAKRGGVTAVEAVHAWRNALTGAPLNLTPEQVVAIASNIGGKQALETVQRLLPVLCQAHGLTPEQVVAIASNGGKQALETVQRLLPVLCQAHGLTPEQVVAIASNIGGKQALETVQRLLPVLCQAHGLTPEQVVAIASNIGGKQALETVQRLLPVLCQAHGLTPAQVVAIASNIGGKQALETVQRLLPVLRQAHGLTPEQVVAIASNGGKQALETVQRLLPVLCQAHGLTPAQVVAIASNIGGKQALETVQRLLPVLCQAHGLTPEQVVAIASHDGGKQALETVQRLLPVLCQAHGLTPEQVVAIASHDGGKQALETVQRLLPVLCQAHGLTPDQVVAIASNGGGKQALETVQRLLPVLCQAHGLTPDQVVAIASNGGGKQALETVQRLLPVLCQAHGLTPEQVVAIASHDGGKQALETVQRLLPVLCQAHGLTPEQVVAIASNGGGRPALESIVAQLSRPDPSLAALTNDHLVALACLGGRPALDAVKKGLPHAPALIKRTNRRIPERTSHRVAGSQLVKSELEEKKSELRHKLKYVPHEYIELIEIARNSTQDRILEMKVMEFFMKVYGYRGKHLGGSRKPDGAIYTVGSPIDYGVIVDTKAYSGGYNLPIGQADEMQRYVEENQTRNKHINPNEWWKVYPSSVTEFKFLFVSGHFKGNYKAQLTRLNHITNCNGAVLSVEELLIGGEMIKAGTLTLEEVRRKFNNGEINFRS
Description: TALE domain fusions were also constructed using Fold cleavage half domains. For these examples, wild type FokI half cleavage domains were used so that for nuclease activity, a homodimer must be formed from two of the fusions. For these fusions, the TALE13 DNA binding domain was fused to each FokI half domain by cloning the TALE DNA binding domain into a plasmid adjacent to FokI-specifying sequence. In addition, various linkers were tested for use between the DNA binding domain and the nuclease domain. Linkers L2 and L8 were used which are as follows: L2=GS (SEQ ID NO:71) and L8=[…] (SEQ ID NO:72). The target sites were cloned into a TOPO2.1 target vector (Invitrogen) with varying gap spacings between each target binding site such that the two were separated from each other by 2 to 22 bp. PCR amplification of an approximately 1 kb region of the target vector was done to generate the target DNAs. The TALE DNA binding domains were also truncated as described previously, and are described using the same nomenclature as described above in Examples 2 and 6. The TALE domain nuclease fusion clones were expressed in the TNT Rabbit Reticulocyte Lysate system by adding 5 μL of water containing 250 nanograms of the nuclease fusion clone plasmid to 20 μL of lysate and incubating at 30° C. for 90 minutes.
The lysate was then used to cleave the target DNAs as follows: 2.5 μL of lysate were added to a 50 μL reaction containing 50 nanograms of PCR-amplified target DNA and a final Buffer 2 (New England Biolabs) concentration of 1×. The cleavage reaction was for one hour at 37° C., followed by a 20 minute heat inactivation stage at 65° C. The reaction was then centrifuged at high speed to separate the target DNA from the lysate, causing the lysate to condense into a pellet in the reaction well. The DNA-containing supernatant was pipetted off and run on an ethidium bromide-stained agarose gel (Invitrogen) to separate intact target DNA from cleaved target DNA. The agarose gel was then analyzed using AlphaEaseFC (Alpha Innotech) software to measure the amount of target DNA present in the large uncleaved DNA band and the two smaller DNA bands resulting from a single cleavage event of the target DNA. The percentage of cleaved DNA out of the total amount of target DNA loaded into the gel represents the percent cleavage in each reaction.

TALE13 N+137 C+95 = TALE13 N+137 C+95 (Xanthomonas axonopodis); assay: DNA-binding ELISA; replicates; conditions: tags: N-terminal Met
Description: as §1

B1: TALE13 target (dsDNA)
DNA 1: TATAAATACCTTCT
DNA 2: AGAAGGTATTTATA
TALE13 N+91 C+52
  binding result: no binding
TALE13 N+121 C+52
  binding result: no binding
TALE13 N+91 C+115
  binding result: no binding
TALE13 N+100 C+115
  binding result: no binding
TALE13 N+111 C+52
  binding result: no binding
TALE13 N+100 C+52
  binding result: no binding
TALE13 +63 FokI
  activity: 70 % cleavage
TALE13 N+137 C+95
  binding result: binds
